Paper PMC9130538, “Amino acids in transmembrane helix 1 confer major functional differences between human and mouse orthologs of the polyspecific membrane transporter OCT1” (The Journal of Biological Chemistry, 2022)

Experiments:
Assay in all cases: cells, lysate or membranes
[1] = substrate: CC(C)(C)NCC(O)c1ccc(O)c(CO)c1; conditions: other: HEK293 stably transfected, 2 min uptake, 37 °C, pH 7.4
[2] = substrate: CC(Cc1ccc(O)cc1)NCC(O)c1cc(O)cc(O)c1; conditions: other: HEK293 stably transfected, 2 min uptake, 37 °C, pH 7.4
[3] = substrate: CNC(=C[N+](=O)[O-])NCCSCc1ccc(CN(C)C)o1; conditions: other: HEK293 stably transfected, 2 min uptake, 37 °C, pH 7.4
[4] = substrate: NC[C@H](O)c1ccc(O)c(O)c1; conditions: other: HEK293 stably transfected, 2 min uptake, 37 °C, pH 7.4
[5] = substrate: CC(NCCc1ccc(O)cc1)C(O)c1ccc(O)cc1; conditions: other: HEK293 stably transfected, 2 min uptake, 37 °C, pH 7.4
[6] = substrate: [H]/N=C(/N)N/C(=N/[H])NCCc1ccccc1; conditions: other: HEK293 stably transfected, 2 min uptake, 37 °C, pH 7.4
Description: (§1) Cells were cultured in Dulbecco’s Modified Eagle’s Medium supplemented with 10% fetal bovine serum, 100 U/ml penicillin, and 100 μg/ml streptomycin at 37 °C and 5% CO2 and were passaged twice a week.
(§2) At 48 h prior to the experiment, 6 × 10^5 cells were seeded per well in 12-well plates. When using transiently transfected cells, 5 × 10^5 T-REx-293 cells (Life Technologies) were seeded per well in 12-well plates 72 h prior to the experiment, and they were transfected 24 h later as described previously. Twelve-well plates were precoated with poly-D-lysine.
(§3) Cellular uptake experiments were performed at 37 °C and pH 7.4 using HBSS supplemented with 10 mM Hepes (in the following referred to as HBSS+). Cells were washed with 1 ml prewarmed (37 °C) HBSS+, and the uptake was initiated by adding 400 μl of prewarmed HBSS+ containing the substrate. Uptake was allowed for exactly 2 min and afterward stopped by adding 2 ml ice-cold HBSS+. Cells were washed twice with 2 ml ice-cold HBSS+ and lysed with 80% acetonitrile supplemented with internal standard, 0.1 N NaOH/0.1% SDS, or radioimmunoprecipitation buffer for LC–MS/MS, liquid scintillation counting, or fluorescence spectroscopy detection, respectively. Intracellular substrate concentrations were measured as described in the following and were then normalized to the amount of total protein in the samples as measured using the bicinchoninic acid assay ([51]).
(§4) For LC–MS/MS quantification of intracellular substrate concentrations, the cell lysate was centrifuged at 16,000g for 15 min, and 350 μl of supernatant was evaporated to dryness under nitrogen flow at 40 °C. The sample was reconstituted with 200 μl 0.1% formic acid, and between 2 and 30 μl were injected into the LC–MS/MS system (Table S1).
(§5) An API4000 QTRAP tandem mass spectrometer with ESI interface (AB SCIEX) was used, coupled to a Shimadzu Nexera X2 UHPLC system with LC 30AD pumps and SiL 30AC autosampler (Shimadzu).
(§6) Intracellular concentrations of radioactively labeled substrates MPP^+ and TEA^+ were quantified using liquid scintillation counting. To this end, 400 μl cell lysate was transferred into a 20 ml scintillation vial, 9 ml Aquasafe 500 Plus liquid scintillator (both Zinsser Analytics) was added, and the sample was measured in the Scintillation Counter LS6500 (Beckman Coulter).

[7] = substrate: O=C(O[C@H]1C[C@H]2CC[C@@H](C1)[N+]21CCCC1)C(O)(c1ccccc1)c1ccccc1; conditions: pH 7.4; 37.0 °C
Description: as §1, §2, §3, §4, §5, §6

[8] = substrate: NCCc1c[nH]cn1; conditions: other: HEK293 stably transfected, 2 min uptake, 37 °C, pH 7.4
[9] = substrate: NCCc1c[nH]c2ccc(O)cc12; conditions: other: HEK293 stably transfected, 2 min uptake, 37 °C, pH 7.4
[10] = substrate: CC(C)(C)NCC(O)c1ccc(O)c(CO)n1; conditions: other: HEK293 stably transfected, 2 min uptake, 37 °C, pH 7.4
[11] = substrate: COc1ccc(CC(C)NCC(O)c2ccc(O)c(NC=O)c2)cc1; conditions: other: HEK293 stably transfected, 2 min uptake, 37 °C, pH 7.4
[12] = substrate: CC(C)(C)NCC(O)c1cc(O)cc(O)c1; conditions: other: HEK293 stably transfected, 2 min uptake, 37 °C, pH 7.4
[13] = substrate: CNC[C@H](O)c1ccc(O)c(O)c1; conditions: other: HEK293 stably transfected, 2 min uptake, 37 °C, pH 7.4
[14] = substrate: CC(C)NCC(O)c1cc(O)cc(O)c1; conditions: other: HEK293 stably transfected, 2 min uptake, 37 °C, pH 7.4
[15] = substrate: C[N+](C)(C)CCO; conditions: other: HEK293 stably transfected, 2 min uptake, 37 °C, pH 7.4
[16] = substrate: C[N+]1(CC2CC2)CC[C@]23c4c5ccc(O)c4O[C@H]2C(=O)CC[C@@]3(O)[C@H]1C5; conditions: other: HEK293 stably transfected, 2 min uptake, 37 °C, pH 7.4
Description: as §1, §2, §3, §4, §5, §6

[17] = substrate: NCCc1ccc(O)c(O)c1; conditions: other: HEK293 stably transfected, 2 min uptake, 37 °C, pH 7.4
[18] = substrate: CC(CCc1ccc(O)cc1)NCC(O)c1ccc(O)cc1; conditions: other: HEK293 stably transfected, 2 min uptake, 37 °C, pH 7.4
Description: as §1, §2, §3, §4, §5, §6

[19] = substrate: CNS(=O)(=O)Cc1ccc2[nH]cc(CCN(C)C)c2c1; conditions: other: HEK293 stably transfected, 2 min uptake, 37 °C, pH 7.4

B1: mouse Oct1 (Mus musculus) (protein)
chain: MPTVDDVLEHVGEFGWFQKQAFLLLCLISASLAPIYVGIVFLGFTPDHHCRSPGVAELSQRCGWSPAEELNYTVPGLGSAGEASFLSQCMKYEVDWNQSTLDCVDPLSSLAANRSHLPLSPCEHGWVYDTPGSSIVTEFNLVCGDAWKVDLFQSCVNLGFFLGSLVVGYIADRFGRKLCLLVTTLVTSLSGVLTAVAPDYTSMLLFRLLQGMVSKGSWVSGYTLITEFVGSGYRRTTAILYQVAFTVGLVGLAGVAYAIPDWRWLQLAVSLPTFLFLLYYWFVPESPRWLLSQKRTTQAVRIMEQIAQKNRKVPPADLKMMCLEEDASERRSPSFADLFRTPSLRKHTLILMYLWFSCAVLYQGLIMHVGATGANLYLDFFYSSLVEFPAAFIILVTIDRIGRIYPIAASNLVAGAACLLMIFIPHELHWLNVTLACLGRMGATIVLQMVCLVNAELYPTFIRNLGMMVCSALCDLGGIFTPFMVFRLMEVWQALPLILFGVLGLSAGAVTLLLPETKGVALPETIEEAENLGRRKSKAKENTIYLQVQTGKSPHT
Question: Which results are given for B1?
Answer: Km [1]: 52.2 ± 7.27 µM; Vmax [1]: 0.00197 µmol/min/mg; Vmax/Km [1]: 38.2 µL/min/mg; Km [2]: 6.90 ± 0.56 µM; Km [3]: 84.4 ± 27.0 µM; Vmax [3]: 0.0058 µmol/min/mg; Vmax/Km [3]: 74.1 µL/min/mg; Km [4]: 409 ± 60.7 µM; Vmax [4]: 0.00607 µmol/min/mg; Vmax/Km [4]: 11.6 µL/min/mg; Km [5]: 6.34 ± 0.89 µM; Vmax [5]: 0.000737 µmol/min/mg; Vmax/Km [5]: 116 µL/min/mg; Km [6]: 7.53 ± 0.63 µM; Km [7]: 1.81 ± 1.03 µM; Vmax [7]: 0.000163 µmol/min/mg; Vmax/Km [7]: 102 µL/min/mg; Km [8]: 497 ± 136 µM; Vmax [8]: 0.00596 µmol/min/mg; Vmax/Km [8]: 11.9 µL/min/mg; Km [9]: 257 ± 53.3 µM; Vmax [9]: 0.0162 ± 0.00276 µmol/min/mg; Vmax/Km [9]: 63.9 µL/min/mg; Km [10]: 26.5 ± 12.5 µM; Vmax [10]: 0.00185 µmol/min/mg; Vmax/Km [10]: 76.3 µL/min/mg; Km [11]: 9.81 ± 2.26 µM; Km [12]: 60.4 ± 18.7 µM; Vmax [12]: 0.00295 µmol/min/mg; Vmax/Km [12]: 48.7 µL/min/mg; Km [13]: 242 ± 38.6 µM; Vmax [13]: 0.00755 µmol/min/mg; Vmax/Km [13]: 31.2 µL/min/mg; Km [14]: 89.8 ± 9.34 µM; Vmax [14]: 0.00424 µmol/min/mg; Vmax/Km [14]: 47.6 µL/min/mg; Km [15]: 1286 ± 308 µM; Vmax [15]: 0.0166 ± 0.0059 µmol/min/mg; Vmax/Km [15]: 13 µL/min/mg; Km [16]: 8.61 ± 3.12 µM; Km [17]: 285 ± 3.25 µM; Vmax [17]: 0.00171 µmol/min/mg; Vmax/Km [17]: 6 µL/min/mg; Km [18]: 2.54 ± 0.83 µM; Vmax [18]: 0.000481 µmol/min/mg; Vmax/Km [18]: 207 µL/min/mg; Km [19]: 65.7 ± 17.0 µM; Vmax [19]: 0.00325 µmol/min/mg; Vmax/Km [19]: 50.5 µL/min/mg

B2: human OCT1 (Homo sapiens) (protein)
chain: MPTVDDILEQVGESGWFQKQAFLILCLLSAAFAPICVGIVFLGFTPDHHCQSPGVAELSQRCGWSPAEELNYTVPGLGPAGEAFLGQCRRYEVDWNQSALSCVDPLASLATNRSHLPLGPCQDGWVYDTPGSSIVTEFNLVCADSWKLDLFQSCLNAGFLFGSLGVGYFADRFGRKLCLLGTVLVNAVSGVLMAFSPNYMSMLLFRLLQGLVSKGNWMAGYTLITEFVGSGSRRTVAIMYQMAFTVGLVALTGLAYALPHWRWLQLAVSLPTFLFLLYYWCVPESPRWLLSQKRNTEAIKIMDHIAQKNGKLPPADLKMLSLEEDVTEKLSPSFADLFRTPRLRKRTFILMYLWFTDSVLYQGLILHMGATSGNLYLDFLYSALVEIPGAFIALITIDRVGRIYPMAMSNLLAGAACLVMIFISPDLHWLNIIIMCVGRMGITIAIQMICLVNAELYPTFVRNLGVMVCSSLCDIGGIITPFIVFRLREVWQALPLILFAVLGLLAAGVTLLLPETKGVALPETMKDAENLGRKAKPKENTIYLKVQTSEPSGT
Question: Which results are given for B2?
Answer: Km [1]: 395 ± 56.8 µM; Vmax [1]: 0.00138 µmol/min/mg; Vmax/Km [1]: 3.55 µL/min/mg; Km [2]: 0.87 ± 0.19 µM; Km [3]: 55.7 ± 4.63 µM; Vmax [3]: 0.00409 µmol/min/mg; Vmax/Km [3]: 75 µL/min/mg; Km [5]: 0.68 ± 0.12 µM; Vmax [5]: 0.000153 µmol/min/mg; Vmax/Km [5]: 226 µL/min/mg; Km [6]: 18.7 ± 2.64 µM; Km [7]: 17.0 ± 5.46 µM; Vmax [7]: 0.00141 µmol/min/mg; Vmax/Km [7]: 86.7 µL/min/mg; Km [8]: 4675 ± 2319 µM; Vmax [8]: 0.00512 µmol/min/mg; Vmax/Km [8]: 1.27 µL/min/mg; Km [9]: 663 ± 334 µM; Vmax [9]: 0.00618 µmol/min/mg; Vmax/Km [9]: 10 µL/min/mg; Km [10]: 29.2 ± 12.2 µM; Vmax [10]: 0.00202 µmol/min/mg; Vmax/Km [10]: 73.5 µL/min/mg; Km [11]: 13.2 ± 3.71 µM; Km [12]: 197 ± 54.1 µM; Vmax [12]: 0.0008 µmol/min/mg; Vmax/Km [12]: 3.81 µL/min/mg; Km [13]: 558 ± 411 µM; Vmax [13]: 0.00112 µmol/min/mg; Vmax/Km [13]: 2.69 µL/min/mg; Km [14]: 530 ± 44.9 µM; Vmax [14]: 0.0016 µmol/min/mg; Vmax/Km [14]: 3.03 µL/min/mg; Km [17]: 674 ± 194 µM; Vmax [17]: 0.000718 µmol/min/mg; Vmax/Km [17]: 1.04 µL/min/mg; Km [18]: 2.17 ± 0.59 µM; Vmax [18]: 0.000336 µmol/min/mg; Vmax/Km [18]: 162 µL/min/mg; Km [19]: 65.9 ± 15.1 µM; Vmax [19]: 0.00418 µmol/min/mg; Vmax/Km [19]: 63.6 µL/min/mg
